The text below walks through data of US20240400618A1 (GRIFOLS DIAGNOSTIC SOLUTIONS, published 2024).

The target of test [1] is T1, pxENB9-FLS-CT-His (SARS-CoV-2, UniProt P0DTC2 15-1213).
Test [2] deals with T2, pxENB17-RBD-His (SARS-CoV-2, UniProt P0DTC2 319-541).
Test [3] has as its target T2, pxENB17-RBD-His. Description: BLI (Octet), ACE2 construct loaded on SA tips by its tag, RBD as analyte. (In general: Biolayer interferometry detects binding as a change in optical thickness at a sensor tip.)
For test [4], the target named is T1, pxENB9-FLS-CT-His. The source holds these as a separate data set.
Test [5] concerns the target T2, pxENB17-RBD-His. This is another data set of the same source.

Like-named read-outs stand apart in the source and are kept apart here.

B1: pxEBNCP18_hACE2-AAA_p53 (receptor)
chain: QSTIEEQAKTFLDKFNHEAEDLFYQSSLASWNYNTNITEENVQNMNNAGDKWSAFLKEQSTLAQMYPLQEIQNLTVKLQLQALQQNGSSVLSEDKSKRLNTILNTMSTIYSTGKVCNPDAPAECLLLEPGLNEIMANSLDYNERLWAWESWRSEVGKALRPLYEEYVVLKNEMARANHYEDYGDYWRGDYEVNGVDGYDYSRGQLIEDVEHTFEEIKPLYEHLHAYVRAKLMNAYPSYISPIGCLPAHLLGDMWGRFWTNLYSLTVPFGQKPNIDVTDAMVDQAWDAQRIFKEAEKFFVSVGLPNMTQGFWENSMLTDPGNVQKAVCHPTAWDLGKGDFRILMCTKVTMDDFLTAHHEMGHIQYDMAYAAQPFLLRNGANEGFHEAVGEIMSLSAATPKHLKSIGLLSPDFQEDNETEINFLLKQALTIVGTLPFTYMLEKWRWMVFKGEIPKDQWMKKWWEMKREIVGVVEPVPHDETYCDPASLFHVSNDYSFIRYYTRTLYQFQFQEALCQAAKHEGPLHKCDISNSTEAGQKLFNMLRLGKSEPWTLALENVVGAKNMNVRPLLNYFEPLFTWLKDQNKNSFVGWSTDWSPYADGGGSKPLDGEYFTLQIRGRERFEMFRELNEALELKDAQAGKEPG
As usually defined, the Kd is the concentration at which binding is half-saturated. A lower Kd goes with a tighter complex. For the molecule B1, the Kd with pxENB9-FLS-CT-His [1] and with pxENB17-RBD-His [2] was 0.001 nM in each case.

B2: pxEBNCP9_hIL2-hACE2(18-615) (receptor)
chain: QSTIEEQAKTFLDKFNHEAEDLFYQSSLASWNYNTNITEENVQNMNNAGDKWSAFLKEQSTLAQMYPLQEIQNLTVKLQLQALQQNGSSVLSEDKSKRLNTILNTMSTIYSTGKVCNPDAPAECLLLEPGLNEIMANSLDYNERLWAWESWRSEVGKALRPLYEEYVVLKNEMARANHYEDYGDYWRGDYEVNGVDGYDYSRGQLIEDVEHTFEEIKPLYEHLHAYVRAKLMNAYPSYISPIGCLPAHLLGDMWGRFWTNLYSLTVPFGQKPNIDVTDAMVDQAWDAQRIFKEAEKFFVSVGLPNMTQGFWENSMLTDPGNVQKAVCHPTAWDLGKGDFRILMCTKVTMDDFLTAHHEMGHIQYDMAYAAQPFLLRNGANEGFHEAVGEIMSLSAATPKHLKSIGLLSPDFQEDNETEINFLLKQALTIVGTLPFTYMLEKWRWMVFKGEIPKDQWMKKWWEMKREIVGVVEPVPHDETYCDPASLFHVSNDYSFIRYYTRTLYQFQFQEALCQAAKHEGPLHKCDISNSTEAGQKLFNMLRLGKSEPWTLALENVVGAKNMNVRPLLNYFEPLFTWLKDQNKNSFVGWSTDWSPYAD
Take B2: in the test with pxENB17-RBD-His [2], the Kd amounted to 45.1 nM.

B3: pxEBNCP25_hACE2-AAA(1-615) (receptor)
chain: QSTIEEQAKTFLDKFNHEAEDLFYQSSLASWNYNTNITEENVQNMNNAGDKWSAFLKEQSTLAQMYPLQEIQNLTVKLQLQALQQNGSSVLSEDKSKRLNTILNTMSTIYSTGKVCNPDAPAECLLLEPGLNEIMANSLDYNERLWAWESWRSEVGKALRPLYEEYVVLKNEMARANHYEDYGDYWRGDYEVNGVDGYDYSRGQLIEDVEHTFEEIKPLYEHLHAYVRAKLMNAYPSYISPIGCLPAHLLGDMWGRFWTNLYSLTVPFGQKPNIDVTDAMVDQAWDAQRIFKEAEKFFVSVGLPNMTQGFWENSMLTDPGNVQKAVCHPTAWDLGKGDFRILMCTKVTMDDFLTAHHEMGHIQYDMAYAAQPFLLRNGANEGFHEAVGEIMSLSAATPKHLKSIGLLSPDFQEDNETEINFLLKQALTIVGTLPFTYMLEKWRWMVFKGEIPKDQWMKKWWEMKREIVGVVEPVPHDETYCDPASLFHVSNDYSFIRYYTRTLYQFQFQEALCQAAKHEGPLHKCDISNSTEAGQKLFNMLRLGKSEPWTLALENVVGAKNMNVRPLLNYFEPLFTWLKDQNKNSFVGWSTDWSPYAD
In the test with pxENB17-RBD-His [2], B3 returned a Kd of 73.3 nM.

B4: pxEBNCP19_mIgGHC_hACE2-3A (receptor)
chain: QSTIEEQAKTFLDKFNHEAEDLFYQSSLASWNYNTNITEENVQNMNNAGDKWSAFLKEQSTLAQMYPLQEIQNLTVKLQLQALQQNGSSVLSEDKSKRLNTILNTMSTIYSTGKVCNPDAPAECLLLEPGLNEIMANSLDYNERLWAWESWRSEVGKALRPLYEEYVVLKNEMARANHYEDYGDYWRGDYEVNGVDGYDYSRGQLIEDVEHTFEEIKPLYEHLHAYVRAKLMNAYPSYISPIGCLPAHLLGDMWGRFWTNLYSLTVPFGQKPNIDVTDAMVDQAWDAQRIFKEAEKFFVSVGLPNMTQGFWENSMLTDPGNVQKAVCHPTAWDLGKGDFRILMCTKVTMDDFLTAHHEMGHIQYDMAYAAQPFLLRNGANEGFHEAVGEIMSLSAATPKHLKSIGLLSPDFQEDNETEINFLLKQALTIVGTLPFTYMLEKWRWMVFKGEIPKDQWMKKWWEMKREIVGVVEPVPHDETYCDPASLFHVSNDYSFIRYYTRTLYQFQFQEALCQAAKHEGPLHKCDISNSTEAGQKLFNMLRLGKSEPWTLALENVVGAKNMNVRPLLNYFEPLFTWLKDQNKNSFVGWSTDWSPYAD
In the test with pxENB17-RBD-His [2], B4 registered a dissociation constant Kd of 56.2 nM.

B5: pxEBNCP10_tPa-hACE2(18-615)-AAA (receptor)
chain: QSTIEEQAKTFLDKFNHEAEDLFYQSSLASWNYNTNITEENVQNMNNAGDKWSAFLKEQSTLAQMYPLQEIQNLTVKLQLQALQQNGSSVLSEDKSKRLNTILNTMSTIYSTGKVCNPDAPAECLLLEPGLNEIMANSLDYNERLWAWESWRSEVGKALRPLYEEYVVLKNEMARANHYEDYGDYWRGDYEVNGVDGYDYSRGQLIEDVEHTFEEIKPLYEHLHAYVRAKLMNAYPSYISPIGCLPAHLLGDMWGRFWTNLYSLTVPFGQKPNIDVTDAMVDQAWDAQRIFKEAEKFFVSVGLPNMTQGFWENSMLTDPGNVQKAVCHPTAWDLGKGDFRILMCTKVTMDDFLTAHHEMGHIQYDMAYAAQPFLLRNGANEGFHEAVGEIMSLSAATPKHLKSIGLLSPDFQEDNETEINFLLKQALTIVGTLPFTYMLEKWRWMVFKGEIPKDQWMKKWWEMKREIVGVVEPVPHDETYCDPASLFHVSNDYSFIRYYTRTLYQFQFQEALCQAAKHEGPLHKCDISNSTEAGQKLFNMLRLGKSEPWTLALENVVGAKNMNVRPLLNYFEPLFTWLKDQNKNSFVGWSTDWSPYAD
B5 showed a Kd with pxENB17-RBD-His [2] of 60.8 nM.

B6: pxEBNCP15_hACE2-AAA-StrepTagII (receptor)
chain: QSTIEEQAKTFLDKFNHEAEDLFYQSSLASWNYNTNITEENVQNMNNAGDKWSAFLKEQSTLAQMYPLQEIQNLTVKLQLQALQQNGSSVLSEDKSKRLNTILNTMSTIYSTGKVCNPDAPAECLLLEPGLNEIMANSLDYNERLWAWESWRSEVGKALRPLYEEYVVLKNEMARANHYEDYGDYWRGDYEVNGVDGYDYSRGQLIEDVEHTFEEIKPLYEHLHAYVRAKLMNAYPSYISPIGCLPAHLLGDMWGRFWTNLYSLTVPFGQKPNIDVTDAMVDQAWDAQRIFKEAEKFFVSVGLPNMTQGFWENSMLTDPGNVQKAVCHPTAWDLGKGDFRILMCTKVTMDDFLTAHHEMGHIQYDMAYAAQPFLLRNGANEGFHEAVGEIMSLSAATPKHLKSIGLLSPDFQEDNETEINFLLKQALTIVGTLPFTYMLEKWRWMVFKGEIPKDQWMKKWWEMKREIVGVVEPVPHDETYCDPASLFHVSNDYSFIRYYTRTLYQFQFQEALCQAAKHEGPLHKCDISNSTEAGQKLFNMLRLGKSEPWTLALENVVGAKNMNVRPLLNYFEPLFTWLKDQNKNSFVGWSTDWSPYADGGSGWSHPQFEK
B6: in the test with pxENB17-RBD-His [3], the “Response, shift in Wavelength (nm)” value was 0.0062 nm. Moreover, the Kd worked out at 4710 nM in the test with pxENB9-FLS-CT-His [4] and 110 nM in the test with pxENB17-RBD-His [5].

B7: pxEBNCP22_hACE2_3A-mIgG(h23) (Fc fusion)
chain: QSTIEEQAKTFLDKFNHEAEDLFYQSSLASWNYNTNITEENVQNMNNAGDKWSAFLKEQSTLAQMYPLQEIQNLTVKLQLQALQQNGSSVLSEDKSKRLNTILNTMSTIYSTGKVCNPDAPAECLLLEPGLNEIMANSLDYNERLWAWESWRSEVGKALRPLYEEYVVLKNEMARANHYEDYGDYWRGDYEVNGVDGYDYSRGQLIEDVEHTFEEIKPLYEHLHAYVRAKLMNAYPSYISPIGCLPAHLLGDMWGRFWTNLYSLTVPFGQKPNIDVTDAMVDQAWDAQRIFKEAEKFFVSVGLPNMTQGFWENSMLTDPGNVQKAVCHPTAWDLGKGDFRILMCTKVTMDDFLTAHHEMGHIQYDMAYAAQPFLLRNGANEGFHEAVGEIMSLSAATPKHLKSIGLLSPDFQEDNETEINFLLKQALTIVGTLPFTYMLEKWRWMVFKGEIPKDQWMKKWWEMKREIVGVVEPVPHDETYCDPASLFHVSNDYSFIRYYTRTLYQFQFQEALCQAAKHEGPLHKCDISNSTEAGQKLFNMLRLGKSEPWTLALENVVGAKNMNVRPLLNYFEPLFTWLKDQNKNSFVGWSTDWSPYADVPRDCGCKPCICTVPEVSSVFIFPPKPKDVLTITLTPKVTCVVVDISKDDPEVQFSWFVDDVEVHTAQTQPREEQFNSTFRSVSELPIMHQDWLNGKEFKCRVNSAAFPAPIEKTISKTKGRPKAPQVYTIPPPKEQMAKDKVSLTCMITDFFPEDITVEWQWNGQPAENYKNTQPIMNTNGSYFVYSKLNVQKSNWEAGNTFTCSVLHEGLHNHHTEKSLSHSPGK
Regarding B7, the Kd with pxENB9-FLS-CT-His [1] came out at 0.001 nM; in the test with pxENB17-RBD-His [2], 0.953 nM.

B8: pxENBCP23_hACE2_3A-mIgG(23) (Fc fusion)
chain: QSTIEEQAKTFLDKFNHEAEDLFYQSSLASWNYNTNITEENVQNMNNAGDKWSAFLKEQSTLAQMYPLQEIQNLTVKLQLQALQQNGSSVLSEDKSKRLNTILNTMSTIYSTGKVCNPDAPAECLLLEPGLNEIMANSLDYNERLWAWESWRSEVGKALRPLYEEYVVLKNEMARANHYEDYGDYWRGDYEVNGVDGYDYSRGQLIEDVEHTFEEIKPLYEHLHAYVRAKLMNAYPSYISPIGCLPAHLLGDMWGRFWTNLYSLTVPFGQKPNIDVTDAMVDQAWDAQRIFKEAEKFFVSVGLPNMTQGFWENSMLTDPGNVQKAVCHPTAWDLGKGDFRILMCTKVTMDDFLTAHHEMGHIQYDMAYAAQPFLLRNGANEGFHEAVGEIMSLSAATPKHLKSIGLLSPDFQEDNETEINFLLKQALTIVGTLPFTYMLEKWRWMVFKGEIPKDQWMKKWWEMKREIVGVVEPVPHDETYCDPASLFHVSNDYSFIRYYTRTLYQFQFQEALCQAAKHEGPLHKCDISNSTEAGQKLFNMLRLGKSEPWTLALENVVGAKNMNVRPLLNYFEPLFTWLKDQNKNSFVGWSTDWSPYADVPEVSSVFIFPPKPKDVLTITLTPKVTCVVVDISKDDPEVQFSWFVDDVEVHTAQTQPREEQFNSTFRSVSELPIMHQDWLNGKEFKCRVNSAAFPAPIEKTISKTKGRPKAPQVYTIPPPKEQMAKDKVSLTCMITDFFPEDITVEWQWNGQPAENYKNTQPIMNTNGSYFVYSKLNVQKSNWEAGNTFTCSVLHEGLHNHHTEKSLSHSPGK
On to B8, for which the results for the Kd with pxENB9-FLS-CT-His [1] and in the test with pxENB17-RBD-His [2] were 38.7 nM and 24.5 nM, respectively.
